Reference: patent US20260000597A1 (priority 2018, published 2026)

Target: AchR (Homo sapiens, UniProt P02708)
Assay: ELISA of screened peptide phages on AchR versus streptavidin (OD450)
Format: binding
Settings: absorbance at 450 nm
Method: The output phages for the 4th and 5th rounds of biopanning in Example 13-1 were inoculated to E. coli, and plated on the agar plates so as to form 100-200 plaques per plate. The plaques were inoculated on 1 ml of an SB liquid medium containing 50 μg/ml of ampicillin by using a sterile tip, and cultured with shaking at 37° C. for 5 hours, followed by the addition of 30 μl of helper phages, and then cultured at 37° C. and 200 rpm for one day. The culture was centrifuged at 12,000 rpm for 2 minutes to collect supernatant, and 2% BSA was added to the supernatant, and used for phage screening.
In a 96-well ELISA plate, 5 μg/ml AchR or streptavidin was added at 50 μl per well, and left at 4° C. overnight. The next day, the solution in each well was discarded, followed by the addition of 2% BSA, and then blocked at room temperature for 2 hours. After the solution was all discarded, the wells were washed three times with Tris (20 mM, pH7). In addition, 100 μl of each of the phage solutions obtained from the above-prepared plaques was dispensed into wells and left at 30° C. for 1 hour. After the solution in the wells was all discarded, the wells were washed three times with Tris (20 mM, pH 7), and then the HRP-conjugated anti-M13 antibody diluted 1:2,000 was added at 100 μl per well, followed by culture at 30° C. for 1 hour. After the wells were washed three times with Tris (20 mM, pH7), 100 μl of tetramethylbenzidine was added to each well to induce a color development reaction, and then the reaction was stopped by the addition of 100 μl of 1M H2SO4, and the absorbance at 450 nm (OD450) was measured. The measured absorbance was converted into a ratio of AchR absorbance to streptavidin absorbance (AchR signal/streptavidin signal), and the results are shown in FIGS. 14 to 16.

[1] = phage ELISA, 5 μg/ml AchR, 4th and 5th round biopanning phages
[2] = ELISA of selected 11-mer (L2) peptide phages on AchR, Spep-2 positive control

Sequence of AchR (P02708 21-457): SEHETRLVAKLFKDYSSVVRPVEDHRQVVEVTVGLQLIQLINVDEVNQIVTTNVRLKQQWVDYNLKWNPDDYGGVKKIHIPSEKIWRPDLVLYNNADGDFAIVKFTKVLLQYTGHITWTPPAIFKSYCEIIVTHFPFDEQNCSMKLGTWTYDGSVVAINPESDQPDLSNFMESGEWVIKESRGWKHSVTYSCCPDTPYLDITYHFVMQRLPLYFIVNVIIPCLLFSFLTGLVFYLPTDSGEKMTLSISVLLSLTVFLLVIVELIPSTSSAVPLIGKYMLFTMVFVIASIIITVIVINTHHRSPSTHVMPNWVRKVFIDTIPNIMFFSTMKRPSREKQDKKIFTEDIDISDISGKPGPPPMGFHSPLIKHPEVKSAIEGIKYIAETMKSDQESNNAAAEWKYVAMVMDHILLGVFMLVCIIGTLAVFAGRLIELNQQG

Substance | OD [1] | OD [2]
KMRRVAPR [Peptide L1-176] | 0.479 | 
KMRRWWLK [Peptide L1-190] | 0.644 | 
KNKKCVGR [Peptide L1-88] | 0.562 | 
KNKRTPVK [Peptide L1-86] | 0.551 | 
KNKRWVFK [Peptide L1-141] | 0.505 | 
KNRKNLYR [Peptide L1-36] | 0.553 | 
KNRRADCR [Peptide L1-140] | 0.381 | 
KPKKGGWK [Peptide L1-148] | 0.426 | 
KPKKPPAR [Peptide L1-84] | 0.576 | 
KPKRDQSR [Peptide L1-113] | 0.526 | 
KPKREMHK [Peptide L1-79] | 0.583 | 
KPKRSAPR [Peptide L1-125] | 0.345 | 
KPRKIQGR [Peptide L1-137] | 0.458 | 
KPRRPDTR [Peptide L1-109] | 0.542 | 
KQKKTGFR [Peptide L1-55] | 0.585 | 
KQKRQWAR [Peptide L1-191] | 0.649 | 
KQRKPHGR [Peptide L1-67] | 0.593 | 
KRKKDWWR [Peptide L1-10] | 0.621 | 
KRRRFRWK [Peptide L1-40] | 0.424 | 
KSKRHHEK [Peptide L1-69] | 0.474 | 

Substance | OD [1] | OD [2]
KSKRPEGR [Peptide L1-122] | 0.352 | 
KSRKHCNR [Peptide L1-70] | 0.668 | 
KSRKWGWR [Peptide L1-39] | 0.509 | 
KSRRAVFR [Peptide L1-151] | 0.479 | 
KSRRMWGR [Peptide L1-183] | 0.605 | 
KSRRSAGK [Peptide L1-73] | 0.644 | 
KTKKAAER [Peptide L1-178] | 0.625 | 
KTKKIHSK [Peptide L1-22] | 0.732 | 
KTKKLYEK [Peptide L1-25] | 0.709 | 
KTKRGSLK [Peptide L1-101] | 0.599 | 
KTKRMLAK [Peptide L1-47] | 0.54 | 
KTKRVDPK [Peptide L1-102] | 0.507 | 
KTRKIVMK [Peptide L1-199] | 0.596 | 
KTRKQDHR [Peptide L1-172] | 0.631 | 
KTRRSACR [Peptide L1-134] | 0.365 | 
KTRRVDLR [Peptide L1-38] | 0.514 | 
KVKKIYYR [Peptide L1-144] | 0.503 | 
KVKRLPYR [Peptide L1-146] | 0.362 | 
KVKRLWNR [Peptide L1-110] | 0.422 | 
KVKRVWGR [Peptide L1-163] | 0.618 | 

Substance | OD [1] | OD [2]
KVRKSLWK [Peptide L1-52] | 0.56 | 
KVRRVFLK [Peptide L1-132] | 0.541 | 
KWKKMMER [Peptide L1-81] | 0.63 | 
KWKRFSQR [Peptide L1-197] | 0.631 | 
KWKRNCTK [Peptide L1-65] | 0.585 | 
KWRKRRIK [Peptide L1-46] | 0.637 | 
KWRRAFGR [Peptide L1-87] | 0.538 | 
KWRREGFK [Peptide L1-12] | 0.691 | 
KWRRELPR [Peptide L1-182] | 0.585 | 
KWRREQFR [Peptide L1-76] | 0.588 | 
KWRRNGQR [Peptide L1-98] | 0.54 | 
KYKKQHTK [Peptide L1-41] | 0.613 | 
KYKKSFTK [Peptide L1-198] | 0.63 | 
KYKREEYR [Peptide L1-161] | 0.474 | 
KYRRNLVR [Peptide L1-56] | 0.468 | 
L2-1 (EDYKYRRQNYK; AchR binding peptide) [Peptide L2-1] |  | 0.705
L2-2 (GIWKFRRNQCK; AchR binding peptide) [Peptide L2-2] |  | 0.749
L2-3 (SPVRWKRLCLR; AchR binding peptide) [Peptide L2-3] |  | 0.796
L2-4 (ECYRNRKAYCR; AchR binding peptide) [Peptide L2-4] |  | 0.757
L2-5 (TQQRLKRVMEK; AchR binding peptide) [Peptide L2-5] |  | 0.752
